Results reported in patent US20220204580A1 (AstraZeneca / MedImmune, published 2022).
Numbered stars: 1 amine (or outer) side, 2 acyl side, 3 side chain; on linkers, the order of the positions; unused ones are H or OH. Bridge positions count the residues as written; N and C are the ends. Square brackets hold non-standard residues; d marks the D form. Side chains are listed from the residue outwards. Ends that are not written are not given here. * marks the point of attachment. C18 diacid = O=C(O)CCCCCCCCCCCCCCCCC(=O)*; γGlu = O=C(O)[C@H](CCC(=O)[*:2])N[*:1]; αMeF = C[C@](N)(Cc1ccccc1)C(=O)O; Dab = NCC[C@H](N)C(=O)O; AEEA = NCCOCCOCC(=O)O; Aib = CC(C)(N)C(=O)O

What was measured:
[1] = biological target: T1, human calcitonin receptor (human, UniProt P30988 25-474); test: cell-based or functional assay
T1 sequence (looked up): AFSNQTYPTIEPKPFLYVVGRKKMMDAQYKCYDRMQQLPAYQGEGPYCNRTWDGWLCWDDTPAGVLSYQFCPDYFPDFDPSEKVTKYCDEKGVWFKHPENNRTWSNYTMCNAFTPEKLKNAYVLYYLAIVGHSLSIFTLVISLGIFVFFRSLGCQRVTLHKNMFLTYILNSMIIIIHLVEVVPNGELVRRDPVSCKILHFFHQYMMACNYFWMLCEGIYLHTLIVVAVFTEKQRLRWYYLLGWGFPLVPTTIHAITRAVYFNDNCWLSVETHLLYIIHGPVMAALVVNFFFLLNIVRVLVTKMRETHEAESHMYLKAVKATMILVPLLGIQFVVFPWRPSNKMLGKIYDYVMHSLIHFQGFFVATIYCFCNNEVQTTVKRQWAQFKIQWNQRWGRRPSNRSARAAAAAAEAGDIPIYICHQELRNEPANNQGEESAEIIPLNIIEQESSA

[2] = biological target: T2, human amylin receptor (calcitonin receptor co-expressed with receptor activity modifying protein, RAMP3) (human, UniProt P30988 25-474; O60896 24-148); test: cell-based or functional assay
T2 sequence (looked up) 1: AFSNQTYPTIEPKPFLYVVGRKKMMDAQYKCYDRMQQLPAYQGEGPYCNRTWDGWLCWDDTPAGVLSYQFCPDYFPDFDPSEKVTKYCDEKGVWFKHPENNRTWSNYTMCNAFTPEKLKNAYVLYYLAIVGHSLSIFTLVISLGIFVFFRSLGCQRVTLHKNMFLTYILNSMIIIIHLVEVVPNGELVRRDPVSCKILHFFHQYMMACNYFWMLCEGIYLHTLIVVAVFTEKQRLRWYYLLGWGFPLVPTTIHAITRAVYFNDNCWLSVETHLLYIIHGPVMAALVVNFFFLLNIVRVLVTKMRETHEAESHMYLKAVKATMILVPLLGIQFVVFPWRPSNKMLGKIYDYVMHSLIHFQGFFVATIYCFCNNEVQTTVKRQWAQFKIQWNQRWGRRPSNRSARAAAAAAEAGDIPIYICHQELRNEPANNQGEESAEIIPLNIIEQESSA
T2 sequence (looked up) 2: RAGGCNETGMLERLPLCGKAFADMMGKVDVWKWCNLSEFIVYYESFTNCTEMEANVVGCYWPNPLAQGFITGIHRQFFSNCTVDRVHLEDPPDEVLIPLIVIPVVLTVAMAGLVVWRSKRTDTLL

B1: Peptide 155 (SEQ ID NO: 155) (peptide)
peptide: K([γGlu-C18 diacid])CNTATCATQRLANFL[Aib]HSSNNFGPILPPTRVGSNTY-NH2
modifications: disulfide 2-7; N-terminus assumed
SMILES: CC[C@H](C)[C@H](NC(=O)[C@@H]1CCCN1C(=O)CNC(=O)[C@H](Cc1ccccc1)NC(=O)[C@H](CC(N)=O)NC(=O)[C@H](CC(N)=O)NC(=O)[C@H](CO)NC(=O)[C@H](CO)NC(=O)[C@H](Cc1c[nH]cn1)NC(=O)C(C)(C)NC(=O)[C@H](CC(C)C)NC(=O)[C@H](Cc1ccccc1)NC(=O)[C@H](CC(N)=O)NC(=O)[C@H](C)NC(=O)[C@H](CC(C)C)NC(=O)[C@H](CCCNC(=N)N)NC(=O)[C@H](CCC(N)=O)NC(=O)[C@@H](NC(=O)[C@H](C)NC(=O)[C@@H]1CSSC[C@H](NC(=O)[C@@H](N)CCCCNC(=O)CC[C@H](NC(=O)CCCCCCCCCCCCCCCCC(=O)O)C(=O)O)C(=O)N[C@@H](CC(N)=O)C(=O)N[C@@H]([C@@H](C)O)C(=O)N[C@@H](C)C(=O)N[C@@H]([C@@H](C)O)C(=O)N1)[C@@H](C)O)C(=O)N[C@@H](CC(C)C)C(=O)N1CCC[C@H]1C(=O)N1CCC[C@H]1C(=O)N[C@H](C(=O)N[C@@H](CCCNC(=N)N)C(=O)N[C@H](C(=O)NCC(=O)N[C@@H](CO)C(=O)N[C@@H](CC(N)=O)C(=O)N[C@H](C(=O)N[C@@H](Cc1ccc(O)cc1)C(N)=O)[C@@H](C)O)C(C)C)[C@@H](C)O
- EC50 (cAMP production) [1]: 3.93 nM
- EC50 (cAMP production) [2]: 0.329 nM
- Ratio (EC50 hCTR / EC50 hAMYR3) [2]: 11.9

B2: Peptide 154 (SEQ ID NO: 154) (peptide)
peptide: K([γGlu-C18 diacid])KCNTATCATQRLANFL[Aib]HSSGNFGPILPPTNVGSNTY-NH2
modifications: disulfide 3-8; N-terminus assumed
SMILES: CC[C@H](C)[C@H](NC(=O)[C@@H]1CCCN1C(=O)CNC(=O)[C@H](Cc1ccccc1)NC(=O)[C@H](CC(N)=O)NC(=O)CNC(=O)[C@H](CO)NC(=O)[C@H](CO)NC(=O)[C@H](Cc1c[nH]cn1)NC(=O)C(C)(C)NC(=O)[C@H](CC(C)C)NC(=O)[C@H](Cc1ccccc1)NC(=O)[C@H](CC(N)=O)NC(=O)[C@H](C)NC(=O)[C@H](CC(C)C)NC(=O)[C@H](CCCNC(=N)N)NC(=O)[C@H](CCC(N)=O)NC(=O)[C@@H](NC(=O)[C@H](C)NC(=O)[C@@H]1CSSC[C@H](NC(=O)[C@H](CCCCN)NC(=O)[C@@H](N)CCCCNC(=O)CC[C@H](NC(=O)CCCCCCCCCCCCCCCCC(=O)O)C(=O)O)C(=O)N[C@@H](CC(N)=O)C(=O)N[C@@H]([C@@H](C)O)C(=O)N[C@@H](C)C(=O)N[C@@H]([C@@H](C)O)C(=O)N1)[C@@H](C)O)C(=O)N[C@@H](CC(C)C)C(=O)N1CCC[C@H]1C(=O)N1CCC[C@H]1C(=O)N[C@H](C(=O)N[C@@H](CC(N)=O)C(=O)N[C@H](C(=O)NCC(=O)N[C@@H](CO)C(=O)N[C@@H](CC(N)=O)C(=O)N[C@H](C(=O)N[C@@H](Cc1ccc(O)cc1)C(N)=O)[C@@H](C)O)C(C)C)[C@@H](C)O
- EC50 (cAMP production) [1]: 1.54 nM
- EC50 (cAMP production) [2]: 0.574 nM
- Ratio (EC50 hCTR / EC50 hAMYR3) [2]: 2.7

B3: Peptide 156 (SEQ ID NO: 156) (peptide)
peptide: K([γGlu-C18 diacid])KCNTATCATQRLA[Dab]FL[Aib]HSSNNFGPILPPTEVGSNTY-NH2
modifications: disulfide 3-8; N-terminus assumed
SMILES: CC[C@H](C)[C@H](NC(=O)[C@@H]1CCCN1C(=O)CNC(=O)[C@H](Cc1ccccc1)NC(=O)[C@H](CC(N)=O)NC(=O)[C@H](CC(N)=O)NC(=O)[C@H](CO)NC(=O)[C@H](CO)NC(=O)[C@H](Cc1c[nH]cn1)NC(=O)C(C)(C)NC(=O)[C@H](CC(C)C)NC(=O)[C@H](Cc1ccccc1)NC(=O)[C@H](CCN)NC(=O)[C@H](C)NC(=O)[C@H](CC(C)C)NC(=O)[C@H](CCCNC(=N)N)NC(=O)[C@H](CCC(N)=O)NC(=O)[C@@H](NC(=O)[C@H](C)NC(=O)[C@@H]1CSSC[C@H](NC(=O)[C@H](CCCCN)NC(=O)[C@@H](N)CCCCNC(=O)CC[C@H](NC(=O)CCCCCCCCCCCCCCCCC(=O)O)C(=O)O)C(=O)N[C@@H](CC(N)=O)C(=O)N[C@@H]([C@@H](C)O)C(=O)N[C@@H](C)C(=O)N[C@@H]([C@@H](C)O)C(=O)N1)[C@@H](C)O)C(=O)N[C@@H](CC(C)C)C(=O)N1CCC[C@H]1C(=O)N1CCC[C@H]1C(=O)N[C@H](C(=O)N[C@@H](CCC(=O)O)C(=O)N[C@H](C(=O)NCC(=O)N[C@@H](CO)C(=O)N[C@@H](CC(N)=O)C(=O)N[C@H](C(=O)N[C@@H](Cc1ccc(O)cc1)C(N)=O)[C@@H](C)O)C(C)C)[C@@H](C)O
- EC50 (cAMP production) [1]: 83.8 nM
- EC50 (cAMP production) [2]: 3.75 nM
- Ratio (EC50 hCTR / EC50 hAMYR3) [2]: 22.3

B4: Peptide 17 (SEQ ID NO: 17) (peptide)
peptide: K([AEEA-AEEA-γGlu-C18 diacid])CNTATCATQRLANFLRHSSNN[αMeF]GPILPPTEVGSNTY-NH2
modifications: disulfide 2-7; N-terminus assumed
SMILES: CC[C@H](C)[C@H](NC(=O)[C@@H]1CCCN1C(=O)CNC(=O)[C@](C)(Cc1ccccc1)NC(=O)[C@H](CC(N)=O)NC(=O)[C@H](CC(N)=O)NC(=O)[C@H](CO)NC(=O)[C@H](CO)NC(=O)[C@H](Cc1c[nH]cn1)NC(=O)[C@H](CCCNC(=N)N)NC(=O)[C@H](CC(C)C)NC(=O)[C@H](Cc1ccccc1)NC(=O)[C@H](CC(N)=O)NC(=O)[C@H](C)NC(=O)[C@H](CC(C)C)NC(=O)[C@H](CCCNC(=N)N)NC(=O)[C@H](CCC(N)=O)NC(=O)[C@@H](NC(=O)[C@H](C)NC(=O)[C@@H]1CSSC[C@H](NC(=O)[C@@H](N)CCCCNC(=O)COCCOCCNC(=O)COCCOCCNC(=O)CC[C@H](NC(=O)CCCCCCCCCCCCCCCCC(=O)O)C(=O)O)C(=O)N[C@@H](CC(N)=O)C(=O)N[C@@H]([C@@H](C)O)C(=O)N[C@@H](C)C(=O)N[C@@H]([C@@H](C)O)C(=O)N1)[C@@H](C)O)C(=O)N[C@@H](CC(C)C)C(=O)N1CCC[C@H]1C(=O)N1CCC[C@H]1C(=O)N[C@H](C(=O)N[C@@H](CCC(=O)O)C(=O)N[C@H](C(=O)NCC(=O)N[C@@H](CO)C(=O)N[C@@H](CC(N)=O)C(=O)N[C@H](C(=O)N[C@@H](Cc1ccc(O)cc1)C(N)=O)[C@@H](C)O)C(C)C)[C@@H](C)O
- EC50 (cAMP production) [1]: 7.08 nM
- EC50 (cAMP production) [2]: 0.365 nM
- Ratio (EC50 hCTR / EC50 hAMYR3) [2]: 19

B5: Peptide 19 (SEQ ID NO: 19) (peptide)
peptide: K([γGlu-C18 diacid])CNTATCATQRLANFLRHSSNN[αMeF]GPILPPTNVGSNTY-NH2
modifications: disulfide 2-7; N-terminus assumed
SMILES: CC[C@H](C)[C@H](NC(=O)[C@@H]1CCCN1C(=O)CNC(=O)[C@](C)(Cc1ccccc1)NC(=O)[C@H](CC(N)=O)NC(=O)[C@H](CC(N)=O)NC(=O)[C@H](CO)NC(=O)[C@H](CO)NC(=O)[C@H](Cc1c[nH]cn1)NC(=O)[C@H](CCCNC(=N)N)NC(=O)[C@H](CC(C)C)NC(=O)[C@H](Cc1ccccc1)NC(=O)[C@H](CC(N)=O)NC(=O)[C@H](C)NC(=O)[C@H](CC(C)C)NC(=O)[C@H](CCCNC(=N)N)NC(=O)[C@H](CCC(N)=O)NC(=O)[C@@H](NC(=O)[C@H](C)NC(=O)[C@@H]1CSSC[C@H](NC(=O)[C@@H](N)CCCCNC(=O)CC[C@H](NC(=O)CCCCCCCCCCCCCCCCC(=O)O)C(=O)O)C(=O)N[C@@H](CC(N)=O)C(=O)N[C@@H]([C@@H](C)O)C(=O)N[C@@H](C)C(=O)N[C@@H]([C@@H](C)O)C(=O)N1)[C@@H](C)O)C(=O)N[C@@H](CC(C)C)C(=O)N1CCC[C@H]1C(=O)N1CCC[C@H]1C(=O)N[C@H](C(=O)N[C@@H](CC(N)=O)C(=O)N[C@H](C(=O)NCC(=O)N[C@@H](CO)C(=O)N[C@@H](CC(N)=O)C(=O)N[C@H](C(=O)N[C@@H](Cc1ccc(O)cc1)C(N)=O)[C@@H](C)O)C(C)C)[C@@H](C)O
- EC50 (cAMP production) [1]: 4.04 nM
- EC50 (cAMP production) [2]: 0.278 nM
- Ratio (EC50 hCTR / EC50 hAMYR3) [2]: 15

B6: Peptide 21 (SEQ ID NO: 21) (peptide)
peptide: K([γGlu-γGlu-C18 diacid])CNTATCATQRLANFLVHSSNN[αMeF]GPILPPTNVGSRTY-NH2
modifications: disulfide 2-7; N-terminus assumed
SMILES: CC[C@H](C)[C@H](NC(=O)[C@@H]1CCCN1C(=O)CNC(=O)[C@](C)(Cc1ccccc1)NC(=O)[C@H](CC(N)=O)NC(=O)[C@H](CC(N)=O)NC(=O)[C@H](CO)NC(=O)[C@H](CO)NC(=O)[C@H](Cc1c[nH]cn1)NC(=O)[C@@H](NC(=O)[C@H](CC(C)C)NC(=O)[C@H](Cc1ccccc1)NC(=O)[C@H](CC(N)=O)NC(=O)[C@H](C)NC(=O)[C@H](CC(C)C)NC(=O)[C@H](CCCNC(=N)N)NC(=O)[C@H](CCC(N)=O)NC(=O)[C@@H](NC(=O)[C@H](C)NC(=O)[C@@H]1CSSC[C@H](NC(=O)[C@@H](N)CCCCNC(=O)CC[C@H](NC(=O)CC[C@H](NC(=O)CCCCCCCCCCCCCCCCC(=O)O)C(=O)O)C(=O)O)C(=O)N[C@@H](CC(N)=O)C(=O)N[C@@H]([C@@H](C)O)C(=O)N[C@@H](C)C(=O)N[C@@H]([C@@H](C)O)C(=O)N1)[C@@H](C)O)C(C)C)C(=O)N[C@@H](CC(C)C)C(=O)N1CCC[C@H]1C(=O)N1CCC[C@H]1C(=O)N[C@H](C(=O)N[C@@H](CC(N)=O)C(=O)N[C@H](C(=O)NCC(=O)N[C@@H](CO)C(=O)N[C@@H](CCCNC(=N)N)C(=O)N[C@H](C(=O)N[C@@H](Cc1ccc(O)cc1)C(N)=O)[C@@H](C)O)C(C)C)[C@@H](C)O
- EC50 (cAMP production) [1]: 3.41 nM
- EC50 (cAMP production) [2]: 0.136 nM
- Ratio (EC50 hCTR / EC50 hAMYR3) [2]: 25
